In US12297272B2, “IgG Fc variants for veterinary use” (Elanco US Inc., priority 2017, dated 2025):
Where a chain is given by its changes, count along the chain named.

B1: equine IgG3 Fc: wild-type equine IgG3 Fc polypeptide (protein)
chain: GGPSVFIFPPKPKDVLMITRMPEVTCLVVDVSHDSSDVLFTWYVDGTEVKTAKTMPNEEQNNSTYRVVSVLRIQHQDWLNGKKFKCKVNNQALPAPVERTISKATGQTRVPQVYVLAPHPDELSKNKVSVTCLVKDFYPPDITVEWQSNEHPEPEGKYRTTEAQKDSDGSYFLYSKLTVEKDRWQQGTTFTCVVMHEALHNHVMQKNISKNPGK
modifications: Wild-type equine IgG3 Fc, Protein A +, C1q+
notes: wild-type equine IgG3 Fc polypeptide
B2: GLP1-G8/GLP1-2G_III_VARfeIgG2: Formula III GLP1 contiguous polypeptide comprising variant feline IgG2 Fc of SEQ ID NO: 17 (Gly to Cys at position 14) (protein)
chain: HGEGTFTSDVSSYLEGQAAKEFIAWLVKGGGGSGGGGSGGGGSGGGGSPKTASTIESKTGECPKCPVPEIPGAPSVFIFPPKPKDTLSISRTPEVTCLVVDLGPDDSNVQITWFVDNTEMHTAKTRPREEQFNSTYRVVSVLPILHQDWLKGKEFKCKVNSKSLPSAMERTISKAKGQPHEPQVYVLPPTQEELSENKVSVTCLIKGFHPPDIAVEWEITGQPEPENNYQTTPPQLDSDGTYFLYSRLSVDRSHWQRGNTYTCSVSHEALHSHHTQKSLTQSPGKGGGGSGGGGHAEGTFTSDVSSYLEGQAAKEFIAWLVKGGG
modifications: Synthetic GLP1-G8/GLP1-2G_III_ VARfeIgG2
B3: feline IgG2 Fc: wild-type feline IgG2 Fc polypeptide (protein)
chain: PKTASTIESKTGEGPKCPVPEIPGAPSVFIFPPKPKDTLSISRTPEVTCLVVDLGPDDSNVQITWFVDNTEMHTAKTRPREEQFNSTYRVVSVLPILHQDWLKGKEFKCKVNSKSLPSAMERTISKAKGQPHEPQVYVLPPTQEELSENKVSVTCLIKGFHPPDIAVEWEITGQPEPENNYQTTPPQLDSDGTYFLYSRLSVDRSHWQRGNTYTCSVSHEALHSHHTQKSLTQSPGK
modifications: Wild-type feline IgG2 Fc, Protein A +, C1q -
notes: wild-type feline IgG2 Fc polypeptide
B4: equine IgG5 Fc: wild-type equine IgG5 Fc polypeptide (protein)
chain: GGPSVFIFPPKPKDVLMISRKPEVTCVVVDLGHDDPDVQFTWFVDGVETHTATTEPKEEQFNSTYRVVSVLPIQHQDWLSGKEFKCSVTSKALPAPVERTISKAKGQLRVPQVYVLAPHPDELAKNTVSVTCLVKDFYPPEIDVEWQSNEHPEPEGKYSTTPAQLNSDGSYFLYSKLSVETSRWKQGESFTCGVMHEAVENHYTQKNVSHSPGK
modifications: Wild-type equine IgG5 Fc, Protein A -, C1q -
notes: wild-type equine IgG5 Fc polypeptide
B5: feline IgG1a Fc: wild-type feline IgG1a Fc polypeptide (protein)
chain 1: RKTDHPPGPKTGEGPKCPPPEMLGGPSIFIFPPKPKDTLSISRTPEVTCLVVDLGPDDSDVQITWFVDNTQVYTAKTSPREEQFNSTYRVVSVLPILHQDWLKGKEFKCKVNSKSLPSPIERTISKAKGQPHEPQVYVLPPAQEELSENKVSVTCLIKSFHPPDIAVEWEITGQPEPENNYRTTPPQLDSDGTYFVYSKLSVDRSHWQRGNTYTCSVSHEALHSHHTQKSLTQSPGK
chain 2: B5 chain 1 with T11P, G12C, E13D, G14C
modifications: Alternative wild-type feline IgG1a Fc, Protein A +, C1q +; Wild-type feline IgG1a Fc, Protein A +, C1q +
notes: wild-type feline IgG1a Fc polypeptide
B6: feline IgG1b Fc: wild-type feline IgG1b Fc polypeptide (protein)
chain 1: B5 chain 1 with A127D, K158E, S159G, H161Y, P163S, V196L, K199R, H206R
chain 2: RKTDHPPGPKPCDCPKCPPPEMLGGPSIFIFPPKPKDTLSISRTPEVTCLVVDLGPDDSDVQITWFVDNTQVYTAKTSPREEQFNSTYRVVSVLPILHQDWLKGKEFKCKVNSKSLPSPIERTISKDKGQPHEPQVYVLPPAQEELSENKVSVTCLIEGFYPSDIAVEWEITGQPEPENNYRTTPPQLDSDGTYFLYSRLSVDRSRWQRGNTYTCSVSHEALHSHHTQKSLTQSPGK
modifications: Alternative wild-type feline IgG1b Fc, Protein A +, C1q +; Wild-type feline IgG1b Fc, Protein A +, C1q +
notes: wild-type feline IgG1b Fc polypeptide
B7: equine IgG2 Fc: wild-type equine IgG2 Fc polypeptide (protein)
chain 1: DMSKCPKCPAPELLGGPSVFIFPPNPKDALMISRTPVVTCVVVNLSDQYPDVQFSWYVDNTEVHSAITKQREAQFNSTYRVVSVLPIQHQDWLSGKEFKCSVTNVGVPQPISRAISRGKGPSRVPQVYVLPPHPDELAKSKVSVTCLVKDFYPPDISVEWQSNRWPELEGKYSTTPAQLDGDGSYFLYSKLSLETSRWQQVESFTCAVMHEALHNHFTKTDISESLGK
chain 2: GGPSVFIFPPNPKDALMISRTPVVTCVVVNLSDQYPDVQFSWYVDNTEVHSAITKQREAQFNSTYRVVSVLPIQHQDWLSGKEFKCSVTNVGVPQPISRAISRGKGPSRVPQVYVLPPHPDELAKSKVSVTCLVKDFYPPDISVEWQSNRWPELEGKYSTTPAQLDGDGSYFLYSKLSLETSRWQQVESFTCAVMHEALHNHFTKTDISESLGK
modifications: Synthetic Variant equine Fc IgG2 (with equine IgG1 hinge), Protein A - , C1q -; Wild-type equine IgG2 Fc, Protein A -, C1q -
notes: wild-type equine IgG2 Fc polypeptide
B8: equine IgG4 Fc: wild-type equine IgG4 Fc polypeptide (protein)
chain: VGPSVFIFPPKPKDVLMISRTPTVTCVVVDVGHDFPDVQFNWYVDGVETHTATTEPKQEQFNSTYRVVSVLPIQHKDWLSGKEFKCKVNNKALPAPVERTISAPTGQPREPQVYVLAPHRDELSKNKVSVTCLVKDFYPPDIDIEWKSNGQPEPETKYSTTPAQLDSDGSYFLYSKLTVETNRWQQGTTFTCAVMHEALHNHYTEKSVSKSPGK
modifications: Wild-type equine IgG4 Fc, Protein A +, C1q +
notes: wild-type equine IgG4 Fc polypeptide
B9: equine IgG7 Fc: wild-type equine IgG7 Fc polypeptide (protein)
chain: B8 chain with F61N, V70I, P72A, K91Q, E98Q, R99K, A103K, R120P, S167G
modifications: Wild-type equine IgG7 Fc, Protein A +, C1q +
notes: wild-type equine IgG7 Fc polypeptide
B10: equine IgG1 Fc: wild-type equine IgG1 Fc polypeptide (protein)
chain: GGPSVFLFPPNPKDTLMITRTPEVTCVVVDVSQENPDVKFNWYMDGVEVRTATTRPKEEQFNSTYRVVSVLRIQHQDWLSGKEFKCKVNNQALPQPIERTITKTKGRSQEPQVYVLAPHPDESKKSKVSVTCLVKDFYPPEINIEWQSNGQPELETKYSTTQAQQDSDGSYFLYSKLSVDRNRWQQGTTFTCGVMHEALHNHYTQKNVSKNPGK
modifications: Wild-type equine IgG1 Fc , Protein A +, C1q +
notes: wild-type equine IgG1 Fc polypeptide
B11: equine IgG6 Fc: wild-type equine IgG6 Fc polypeptide (protein)
chain: GRPSVFIFPPNPKDTLMISRTPEVTCVVVDVSQENPDVKFNWYVDGVEAHTATTKAKEKQDNSTYRVVSVLPIQHQDWRRGKEFKCKVNNRALPAPVERTITKAKGELQDPQVYILAPHPDEVTKNTVSVTCLVKDFYPPDINVEWQSNEEPEPEVKYSTTPAQLDGDGSYFLYSKLTVETDRWEQGESFTCVVMHEAIRHTYRQKSITNFPGK
modifications: Wild-type equine IgG6 Fc, Protein A -, C1q -
notes: wild-type equine IgG6 Fc polypeptide

Key:
C1q = C1q (Homo sapiens, UniProt P02745+P02746+P02747); assay: C1q binding of IgG Fc polypeptides (Octet biolayer interferometry described); as to C1q binding: key: (−) denotes low or no measurable binding activity
Chain of C1q (P02745 23-245): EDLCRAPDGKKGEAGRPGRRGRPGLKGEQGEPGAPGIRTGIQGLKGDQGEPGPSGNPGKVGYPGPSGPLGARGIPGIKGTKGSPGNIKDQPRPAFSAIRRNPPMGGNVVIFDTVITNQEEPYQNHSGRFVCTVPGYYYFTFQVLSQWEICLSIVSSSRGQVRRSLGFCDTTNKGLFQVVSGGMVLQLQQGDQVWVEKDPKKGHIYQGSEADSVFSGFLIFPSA
Chain of C1q (P02746 28-253): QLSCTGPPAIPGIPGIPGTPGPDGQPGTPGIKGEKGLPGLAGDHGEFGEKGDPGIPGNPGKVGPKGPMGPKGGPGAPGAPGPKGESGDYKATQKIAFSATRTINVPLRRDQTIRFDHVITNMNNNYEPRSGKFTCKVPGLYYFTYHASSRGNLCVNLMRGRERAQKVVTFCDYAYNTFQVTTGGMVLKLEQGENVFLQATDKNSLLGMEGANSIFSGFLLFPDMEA
Chain of C1q (P02747 29-245): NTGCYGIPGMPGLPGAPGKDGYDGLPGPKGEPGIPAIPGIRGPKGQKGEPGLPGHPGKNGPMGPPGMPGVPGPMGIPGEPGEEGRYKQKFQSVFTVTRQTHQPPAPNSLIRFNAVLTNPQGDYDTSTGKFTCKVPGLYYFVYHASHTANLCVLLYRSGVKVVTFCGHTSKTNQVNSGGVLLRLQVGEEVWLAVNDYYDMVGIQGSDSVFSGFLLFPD
Description: Binding analysis may be performed using an Octet biosensor.

Protein A = Protein A (Staphylococcus aureus, UniProt P38507); details: for Protein A Binding: Wild-type Equine IgG Fc
Protocol: In some embodiments, the KD of an IgG Fc polypeptide, such as a variant IgG Fc polypeptide, to Protein A or to C1q or to CD16 is measured by using biolayer interferometry assays using a biosensor, such as an Octet® System (Pall ForteBio LLC, Fremont, CA) according to the supplier's instructions. In brief, biotinylated Protein A or C1q or CD16 is bound to the sensor tip and the association of IgG Fc polypeptide is monitored for a specified time or until steady state is reached. Dissociation may be monitored for a specified time or until steady state is reached. A buffer only blank curve is subtracted to correct for any drift. The data are fit to a 2:1 binding model using ForteBio data analysis software to determine association rate constant (kon), dissociation rate constant (koff), and the Kd. The equilibrium dissociation constant (KD) is calculated as the ratio of koff/kon. The term “kon” refers to the rate constant for association of a molecule X to its partner Y and the term “koff” refers to the rate constant for dissociation of a molecule X or partner Y from the molecule X/partner Y complex.
Binding analysis may be performed using an Octet biosensor. Briefly, the target molecule (e.g., Protein A, C1q, CD16, etc.) may be biotinylated and free unreacted biotin removed (e.g., by dialysis). The biotinylated target molecule is captured on streptavidin sensor tips. Association of the target molecule with various concentrations (e.g., 10 μg/mL) of IgG Fc polypeptide is monitored for a specified time or until steady state is reached. Dissociation is monitored for a specified time or until steady state is reached. A buffer only blank curve may be subtracted to correct for any drift. The data are fit to a 1:1 binding model using ForteBio™ data analysis software to determine the kon, koff, and the Kd.

[1] = Differential scanning fluorimetry, stability at various pH; assay type: physicochemical; details: n = 3, 10 μg construct
Description: Furthermore, differential scanning fluorimetry was used to assess the stability of the contiguous polypeptides at various pH, as reflected by mean melting point temperature (n=3) (Table 9, below). The increased stability of the variant feline IgG2 hinge is most evident at pH 6.

| Molecule | binding affinity to C1q (C1q) | Protein A binding affinity (Protein A) | further results |
| --- | --- | --- | --- |
| B1 | bind to C1q | have Protein A binding affinity |  |
| B2 |  |  | Mean Melting Point Temperature (Tm) ([1]; pH 6): 56.9 °C; Mean Melting Point Temperature (Tm) ([1]; pH 7): 55 °C; Mean Melting Point Temperature (Tm) ([1]; pH 8): 52.5 °C |
| B3 | weak or no measurable binding affinity to C1q | have Protein A binding affinity | C1q Binding (C1q; Wild-type Feline IgG Fc): − |
| B4 | weak or no measurable binding affinity to C1q | weak or no measurable Protein A binding affinity | C1q Binding (C1q; Wild-type Equine IgG Fc): −; Protein A Binding (Protein A): − |
| B5 | bind to C1q | have Protein A binding affinity |  |
| B6 | bind to C1q | have Protein A binding affinity |  |
| B7 | weak or no measurable binding affinity to C1q | weak or no measurable Protein A binding affinity | C1q Binding (C1q; Wild-type Equine IgG Fc): −; Protein A Binding (Protein A): − |
| B8 | bind to C1q | have Protein A binding affinity |  |
| B9 | bind to C1q | have Protein A binding affinity |  |
| B10 | bind to C1q | have Protein A binding affinity |  |
| B11 | weak or no measurable binding affinity to C1q | weak or no measurable Protein A binding affinity | C1q Binding (C1q; Wild-type Equine IgG Fc): −; Protein A Binding (Protein A): − |
